Experimental data taken from PMC4294672 (Molecular Biology of the Cell, 2015).
Where two headings read alike, the source gives them in different places.

B1: GST-Rho4 (enzyme)
chain: MSAFKKSGSKSETSKKLVVVGDGGCGKTCLLIVFSSGTFPERYVPTVFENYITDITYGPNSKVIELALWDTAGQEEYDRLRPLSYPNSNVILLCFSIDCPASLNNVTEKWYPEVQHFCPRTPIVLVGLKADLRKDRNATEVLRTQGLTPVTYQQAQSVALSMNAPYVECSAKENTGVNEVFQLAVGLTIKKSFSFSKKSCVIL
B3: hexahistidine (6His)-tagged Gef3 (natural protein)
chain: MSNPRMFQSRGKRVVSDSLPIANSTHTLEDTLKLRPDWTIALSQHETETRSTRTSCSTTTESTIAMRSKQKAIISVLEEFRDSEAAYVHDLHVAQRYYADRLSDRVKKSEWKDVFEIFLVLCKQASLFEIEMHKSLNDEINYILDDQDACLKPKPSVAQLFLSWLPKLSAVYGRYCVIQENIGKKVEKWMKNSSISEYLQECDSMAKIESNSWNLDSFLVKPVQRFLKYPLLLNQLYRSASLGIISDYVLLGEACHKSEIASQRMNELKRRRDIIITALDSVSNSQEVLLLSTDSIDKKIAKLQNSTNIFYVPEHEPILAFVHQLSSSYTNLLNLRSAICDWLKFSRYHYLKFFTFVEAYSVFCKDTKSADKWALISVALDNIAKGAVLRLTEQCQTSVLRPISNGILFFRNPLCVTDVWIKKATAFSKRRQSQVFEEDLESFPLLSNCLLEELPLFLEMARNVTDECILAFAQIQATFYDTIQKVLEPVVAKFNLTDHQDIPSIESIMDFTSLRSSMESSPKSK

Key:
Experiment in all cases: pull-down
[1] = target: T1, 3FLAG-Gef3 (S. pombe, UniProt O59679 1-525)
T1 sequence: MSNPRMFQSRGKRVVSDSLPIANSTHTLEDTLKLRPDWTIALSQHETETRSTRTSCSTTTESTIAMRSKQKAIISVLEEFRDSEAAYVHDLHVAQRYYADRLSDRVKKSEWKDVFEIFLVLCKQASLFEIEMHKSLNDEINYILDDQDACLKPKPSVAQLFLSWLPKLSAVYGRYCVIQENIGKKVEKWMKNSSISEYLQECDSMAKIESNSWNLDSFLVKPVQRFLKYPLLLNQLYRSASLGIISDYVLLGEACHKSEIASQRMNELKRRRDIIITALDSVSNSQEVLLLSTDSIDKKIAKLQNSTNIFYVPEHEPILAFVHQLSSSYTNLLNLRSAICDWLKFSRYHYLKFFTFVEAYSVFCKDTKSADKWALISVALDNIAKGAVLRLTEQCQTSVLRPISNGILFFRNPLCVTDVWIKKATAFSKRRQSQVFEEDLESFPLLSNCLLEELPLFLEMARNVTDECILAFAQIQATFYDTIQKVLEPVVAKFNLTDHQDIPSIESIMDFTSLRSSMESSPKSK

[2] = target: B3
[3] = target: B1
[4] = target: T1, 3FLAG-Gef3; remark: listed apart in the source

Binder: B1
- binding result [1]: binds

B2: GST-Rho1 (enzyme)
chain: MATELRRKLVIVGDGACGKTCLLIVFSKGTFPEVYVPTVFENYVADVEVDGRHVELALWDTAGQEDYDRLRPLSYPDSHVILICFAVDSPDSLDNVQEKWISEVLHFCSSLPILLVACKADLRNDPKIIEELSKTNQHPVTTEEGQAVAQKIGAYKYLECSAKTNEGVREVFESATRAAMLKHKPKVKPSSGTKKKKRCILL
- binding result [1]: binds
- binding result [2]: binds

Binder: B3
- fold more pulled down than by the GST control [3]: ~35 times

B4: GST-Rho5 (enzyme)
chain: MTTELRRKLVIVGDGACGKTCLLIVFSKGTFPEVYVPTVFENYVADVEVDGRHIELALWDTAGQEDYDRLRPLSYPDSHVVLICFSVDAPESLDNVQEKWISEVLHFCSNLPILLVGCKVDLRNDPKTIEELSKTSQKPITFEEGQVVAQKIGAYKYLECSAKLNEGVNEVFETAARASMLKFKPASVPKTKKKKHCILL
- binding result [4]: binds
- binding result [2]: binds

B5: GST-Rho2 (enzyme)
chain: MLQSQPIRRKLVVVGDGACGKTSLLSVFTLGYFPTEYVPTVFENYVSDCRVDGKSVQLALWDTAGQEEYERLRPMSYAKAHIILVGFAIDSPDSLENVSTKWIEEINTLCPNVPFILVGMKADLRSDPVAIEEMRRRNQNFVKSQQAELVAQRIGARKYMECSSLTGDGVDDVFEAATRAALTVRDSENDKSSTKCCIIS
- binding result [4]: binds
